According to IntAct's records for PubMed 19898420:

B1: Abscisic acid receptor PYL2 (Arabidopsis thaliana (Mouse-ear cress)), O80992 (parent)
chain: MSSSPAVKGLTDEEQKTLEPVIKTYHQFEPDPTTCTSLITQRIHAPASVVWPLIRRFDNPERYKHFVKRCRLISGDGDVGSVREVTVISGLPASTSTERLEFVDDDHRVLSFRVVGGEHRLKNYKSVTSVNEFLNQDSGKVYTVVLESYTVDIPEGNTEEDTKMFVDTVVKLNLQKLGVAATSAPMHDDE
B2: Abscisic acid receptor PYR1 (Arabidopsis thaliana (Mouse-ear cress)), O49686 (parent)
chain: MPSELTPEERSELKNSIAEFHTYQLDPGSCSSLHAQRIHAPPELVWSIVRRFDKPQTYKHFIKSCSVEQNFEMRVGCTRDVIVISGLPANTSTERLDILDDERRVTGFSIIGGEHRLTNYKSVTTVHRFEKENRIWTVVLESYVVDMPEGNSEDDTRMFADTVVKLNLQKLATVAEAMARNSGDGSGSQVT

Variants of: B1
Details: with HAB1, Q9CAJ0

Row | effect of a mutation on the interaction | Variant
1 | decreasing interaction | MSSSPAVKGLTDEEQKTLEPVIKTYHQFEPDPTTCTSLITQRIHAPASVVWPLIRRFDNPERYKHFVKRCRLISGDGDVGSVREVTVISGLPASTSTERLEFVDDDHRVLSFRVVGGEARLKNYKSVTSVNEFLNQDSGKVYTVVLESYTVDIPEGNTEEDTKMFVDTVVKLNLQKLGVAATSAPMHDDE [H119A]
2 | decreasing interaction | MSSSPAVKGLTDEEQKTLEPVIKTYHQFEPDPTTCTSLITQRIHAPASVVWPLIRRFDNPERYKHFVKRCRLISGDGDVGSVREVTVISGLPASTSTERLEFVDDDHRVLSFRVVGGEHALKNYKSVTSVNEFLNQDSGKVYTVVLESYTVDIPEGNTEEDTKMFVDTVVKLNLQKLGVAATSAPMHDDE [R120A]

Variants of: B2
Details: with HAB1, Q9CAJ0

Row | effect of a mutation on the interaction | Variant
3 | disrupting interaction | MPSELTPEERSELKNSIAEFHTYQLDPGSCSSLHAQRIHAPPELVWSIVRRFDKPQTYKHFIKSCSVEQNFEMRVGCTRDVIVISGLPANTSTERLDILDDERRVTGFSIIGGEARLTNYKSVTTVHRFEKENRIWTVVLESYVVDMPEGNSEDDTRMFADTVVKLNLQKLATVAEAMARNSGDGSGSQVT [H115A]
